Reference: article PMC9669019, “Molecular basis for integrin adhesion receptor binding to p21-activated kinase 4 (PAK4)” (Communications Biology, 2022)
Where “and” joins values, the source holds several entries; their conditions need not be identical. Identical values can stand only once. Ends that are not written are not given here. helical region = not defined here

How the values were obtained:
[1] = biological target: T1, PAK4 catalytic domain, purified recombinant (PAK4-cat) (human, UniProt O96013 286-591); experiment: cell-based or functional assay
[2] = biological target: T2, PAK4 catalytic domain (human, UniProt O96013 286-591); experiment: ITC; Nano-ITC, 25 °C, PBS pH 7.4; 407 µM integrin β5^743–799 in the syringe titrated into 44 or 72 µM PAK4cat in the sample cell; PAK4cat pre-incubated with 5 mM MgCl2 and 1 mM AMP-PNP; 20 injections of 2.5 µL; settings: both partners purified
T2 construct: the GFP-PAK4-cat of the pull-downs is 302-591; The His tag is cleavable by TEV protease; also called PAK4 kinase domain; source: E. coli BL21-CodonPlus(DE3)RILP, purified (HisTrap, Resource Q, Superdex 200)

[3] = biological target: T1, PAK4 catalytic domain, purified …; experiment: ITC; Nano-ITC, 25 °C, PBS pH 7.4; 407 µM integrin β5 743–799 in the syringe, 44 and 72 µM PAK4cat (pre-incubated with 5 mM MgCl2 and 1 mM AMP-PNP) in the cell; 20 injections of 2.5 µL; settings: both partners purified
[4] = biological target: T1, PAK4 catalytic domain, purified …; experiment: pull-down; His-tagged β5 tails on Ni-NTA beads; varying concentrations of purified PAK4-cat in buffer X-T, 2 h, 4 °C; apparent affinity, one-site specific-binding model, three independent experiments; settings: both partners purified

T2 sequence (O96013 286-591): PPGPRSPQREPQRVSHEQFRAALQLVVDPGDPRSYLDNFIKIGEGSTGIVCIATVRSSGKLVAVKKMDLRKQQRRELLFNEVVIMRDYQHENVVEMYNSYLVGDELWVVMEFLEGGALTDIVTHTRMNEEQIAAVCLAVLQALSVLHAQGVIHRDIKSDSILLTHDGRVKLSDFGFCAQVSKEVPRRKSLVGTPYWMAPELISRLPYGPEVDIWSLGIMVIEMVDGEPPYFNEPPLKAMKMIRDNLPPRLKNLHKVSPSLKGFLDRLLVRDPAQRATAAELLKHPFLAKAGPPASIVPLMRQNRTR
T1 sequence (O96013 286-591): as above

B1: integrin β5 peptide, residues Glu760-Ser770 (peptide)
peptide: Ac-ERSRARYEMAS-NH2
With B1 the “inhibition of PAK4 phosphorylation of a LIMK1 10mer peptide (…, 50 µM) in a radioactive in vitro kinase assay, β5 peptide 0–1024 µM, 1 mg/ml BSA: IC50” value [1] was 160 µM.

B2: 6xHis integrin β5 full-length cytosolic peptide (residues 743–799) (domain or fragment, UniProt P18084 743-799, looked up)
chain: KLLVTIHDRREFAKFQSERSRARYEMASNPLYRKPISTHTVDFTFNKFNKSYNGTVD
modifications: also: 6xHis tag, position not given here
notes: also called integrin β5 cytoplasmic tail
In the case of B2, the Kd [2] is reported as 5.1 µM and 4.8 µM and the “stoichiometry N” value [2] is reported as 1.4 and 0.7.

B3: 6xHis integrin β5 full-length cytosolic peptide (residues 743–799) (domain or fragment, UniProt P18084 743-799, looked up)
chain: B2 chain
modifications: also: 6xHis tag, position not given here
notes: subcloned into a pET32 vector
In the case of B3, the Kd [3] is reported as 4.95 ± 1.5 µM, the dH [3] is reported as -8.45 ± 0.75 kJ/mol and the “stoichiometry N” value [3] is reported as 1.05 ± 0.35.

B4: His-tagged recombinant model of the integrin β5 cytoplasmic tail (domain or fragment)
chain: {His‑tag-helical region-Gly4}-KLLVTIHDRREFAKFQSERSRARYEMASNPLYRKPISTHTVDFTFNKFNKSYNGTVD
modifications: not fully specified; reading uncertain
Binder B4 has a Kd [4] of ~1800 nM.
